Consider one substance from PMC9606253.

Experiment [1] has as its target SS18L1 (mouse (endogenous in mouse brain)) (UniProt Q8BW22). The experiment can be described thus: co-IP; three successive immunodepletions of adult Brwd1^FLAG-HA brain nuclear extract with antibodies to SMARCA4 or SS18L1 or IgG; signal left in the final flow-through by blot densitometry, normalised to IgG.
In experiment [2] the target is SMARCA4 (mouse (endogenous in mouse brain)) (UniProt Q3TKT4). The experiment is described as above.
Experiment [3] addresses SS18 (mouse (endogenous in mouse brain)) (UniProt Q62280). The experiment can be described thus: co-IP; three successive immunodepletions of E17.5 Brwd1^FLAG-HA brain nuclear extract with antibodies to SMARCA4, SS18 or SS18L1 or IgG; signal left in the final flow-through by blot densitometry, normalised to IgG.
The target in experiment [4] is SMARCA4 (mouse (endogenous in mouse brain)) (UniProt Q3TKT4). The experiment is described as follows: co-IP; brain nuclear extract partially denatured with 0, 0.25, 0.5, 1, 2 or 4 M urea (15 min, room temperature), dialysed, then IP with anti-SMARCA4 (BRG1 H-10) or mouse IgG; bound protein normalised to immunoprecipitated SMARCA4 (n = 3).

Chain of BRWD1-FLAG-HA, Q921C3 1-2304 (natural protein) (Q921C3 whole entry): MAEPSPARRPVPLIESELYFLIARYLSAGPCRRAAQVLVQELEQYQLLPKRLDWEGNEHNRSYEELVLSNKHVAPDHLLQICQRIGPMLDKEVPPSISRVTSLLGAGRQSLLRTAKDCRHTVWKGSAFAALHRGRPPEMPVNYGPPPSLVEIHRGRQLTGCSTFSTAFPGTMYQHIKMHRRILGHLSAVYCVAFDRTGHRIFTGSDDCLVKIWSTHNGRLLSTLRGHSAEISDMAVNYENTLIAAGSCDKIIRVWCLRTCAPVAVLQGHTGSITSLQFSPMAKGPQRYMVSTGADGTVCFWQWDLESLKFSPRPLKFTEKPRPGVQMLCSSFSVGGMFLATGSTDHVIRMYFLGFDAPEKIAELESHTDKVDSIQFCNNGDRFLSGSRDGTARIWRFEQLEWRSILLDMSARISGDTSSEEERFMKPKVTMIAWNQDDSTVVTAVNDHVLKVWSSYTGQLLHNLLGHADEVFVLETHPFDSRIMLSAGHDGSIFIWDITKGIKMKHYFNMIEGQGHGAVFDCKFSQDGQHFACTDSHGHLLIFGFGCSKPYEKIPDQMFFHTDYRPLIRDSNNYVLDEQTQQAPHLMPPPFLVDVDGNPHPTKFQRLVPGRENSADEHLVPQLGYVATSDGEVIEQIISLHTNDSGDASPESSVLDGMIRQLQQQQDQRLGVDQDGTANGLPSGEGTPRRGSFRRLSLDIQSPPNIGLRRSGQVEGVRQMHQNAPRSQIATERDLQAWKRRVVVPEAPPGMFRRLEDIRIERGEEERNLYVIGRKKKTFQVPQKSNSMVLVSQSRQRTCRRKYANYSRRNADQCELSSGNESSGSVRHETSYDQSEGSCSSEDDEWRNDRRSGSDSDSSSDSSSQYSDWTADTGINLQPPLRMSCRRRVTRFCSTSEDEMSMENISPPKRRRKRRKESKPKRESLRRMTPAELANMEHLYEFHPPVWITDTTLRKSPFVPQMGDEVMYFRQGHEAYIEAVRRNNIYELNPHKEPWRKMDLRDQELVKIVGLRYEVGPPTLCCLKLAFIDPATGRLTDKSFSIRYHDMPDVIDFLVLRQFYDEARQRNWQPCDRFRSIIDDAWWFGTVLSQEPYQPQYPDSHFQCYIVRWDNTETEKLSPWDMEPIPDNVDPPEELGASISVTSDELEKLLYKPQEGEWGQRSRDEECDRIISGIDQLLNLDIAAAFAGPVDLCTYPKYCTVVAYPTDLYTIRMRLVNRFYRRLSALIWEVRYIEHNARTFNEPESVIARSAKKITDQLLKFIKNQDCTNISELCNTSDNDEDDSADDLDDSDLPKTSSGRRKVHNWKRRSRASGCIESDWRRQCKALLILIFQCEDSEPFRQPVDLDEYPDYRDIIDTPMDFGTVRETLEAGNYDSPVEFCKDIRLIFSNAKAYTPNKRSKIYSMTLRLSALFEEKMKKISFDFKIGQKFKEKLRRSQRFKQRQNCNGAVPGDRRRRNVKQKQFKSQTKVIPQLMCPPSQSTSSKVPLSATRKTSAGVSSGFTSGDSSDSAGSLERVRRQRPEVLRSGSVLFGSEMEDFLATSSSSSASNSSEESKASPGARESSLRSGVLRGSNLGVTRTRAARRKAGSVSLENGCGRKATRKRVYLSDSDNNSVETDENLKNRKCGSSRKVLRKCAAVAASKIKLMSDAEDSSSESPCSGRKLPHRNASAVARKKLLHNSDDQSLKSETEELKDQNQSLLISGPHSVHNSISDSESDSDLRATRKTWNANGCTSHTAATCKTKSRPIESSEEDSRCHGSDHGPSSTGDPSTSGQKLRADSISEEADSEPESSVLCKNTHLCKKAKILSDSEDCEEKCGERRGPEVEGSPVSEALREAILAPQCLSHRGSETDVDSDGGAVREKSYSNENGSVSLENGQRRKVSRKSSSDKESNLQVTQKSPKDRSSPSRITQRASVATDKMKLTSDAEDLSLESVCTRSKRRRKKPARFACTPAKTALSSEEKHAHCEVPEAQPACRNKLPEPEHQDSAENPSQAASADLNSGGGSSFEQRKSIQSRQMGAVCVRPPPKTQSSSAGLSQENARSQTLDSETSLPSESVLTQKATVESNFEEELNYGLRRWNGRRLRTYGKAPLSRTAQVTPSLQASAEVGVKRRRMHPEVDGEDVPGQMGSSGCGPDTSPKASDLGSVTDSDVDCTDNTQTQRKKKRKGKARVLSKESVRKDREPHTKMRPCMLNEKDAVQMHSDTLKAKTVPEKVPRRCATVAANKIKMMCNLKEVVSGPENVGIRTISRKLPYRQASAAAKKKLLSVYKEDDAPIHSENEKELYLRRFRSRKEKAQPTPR
Chain of SMARCA4 (mouse (endogenous in mouse brain)) (Q3TKT4 whole entry): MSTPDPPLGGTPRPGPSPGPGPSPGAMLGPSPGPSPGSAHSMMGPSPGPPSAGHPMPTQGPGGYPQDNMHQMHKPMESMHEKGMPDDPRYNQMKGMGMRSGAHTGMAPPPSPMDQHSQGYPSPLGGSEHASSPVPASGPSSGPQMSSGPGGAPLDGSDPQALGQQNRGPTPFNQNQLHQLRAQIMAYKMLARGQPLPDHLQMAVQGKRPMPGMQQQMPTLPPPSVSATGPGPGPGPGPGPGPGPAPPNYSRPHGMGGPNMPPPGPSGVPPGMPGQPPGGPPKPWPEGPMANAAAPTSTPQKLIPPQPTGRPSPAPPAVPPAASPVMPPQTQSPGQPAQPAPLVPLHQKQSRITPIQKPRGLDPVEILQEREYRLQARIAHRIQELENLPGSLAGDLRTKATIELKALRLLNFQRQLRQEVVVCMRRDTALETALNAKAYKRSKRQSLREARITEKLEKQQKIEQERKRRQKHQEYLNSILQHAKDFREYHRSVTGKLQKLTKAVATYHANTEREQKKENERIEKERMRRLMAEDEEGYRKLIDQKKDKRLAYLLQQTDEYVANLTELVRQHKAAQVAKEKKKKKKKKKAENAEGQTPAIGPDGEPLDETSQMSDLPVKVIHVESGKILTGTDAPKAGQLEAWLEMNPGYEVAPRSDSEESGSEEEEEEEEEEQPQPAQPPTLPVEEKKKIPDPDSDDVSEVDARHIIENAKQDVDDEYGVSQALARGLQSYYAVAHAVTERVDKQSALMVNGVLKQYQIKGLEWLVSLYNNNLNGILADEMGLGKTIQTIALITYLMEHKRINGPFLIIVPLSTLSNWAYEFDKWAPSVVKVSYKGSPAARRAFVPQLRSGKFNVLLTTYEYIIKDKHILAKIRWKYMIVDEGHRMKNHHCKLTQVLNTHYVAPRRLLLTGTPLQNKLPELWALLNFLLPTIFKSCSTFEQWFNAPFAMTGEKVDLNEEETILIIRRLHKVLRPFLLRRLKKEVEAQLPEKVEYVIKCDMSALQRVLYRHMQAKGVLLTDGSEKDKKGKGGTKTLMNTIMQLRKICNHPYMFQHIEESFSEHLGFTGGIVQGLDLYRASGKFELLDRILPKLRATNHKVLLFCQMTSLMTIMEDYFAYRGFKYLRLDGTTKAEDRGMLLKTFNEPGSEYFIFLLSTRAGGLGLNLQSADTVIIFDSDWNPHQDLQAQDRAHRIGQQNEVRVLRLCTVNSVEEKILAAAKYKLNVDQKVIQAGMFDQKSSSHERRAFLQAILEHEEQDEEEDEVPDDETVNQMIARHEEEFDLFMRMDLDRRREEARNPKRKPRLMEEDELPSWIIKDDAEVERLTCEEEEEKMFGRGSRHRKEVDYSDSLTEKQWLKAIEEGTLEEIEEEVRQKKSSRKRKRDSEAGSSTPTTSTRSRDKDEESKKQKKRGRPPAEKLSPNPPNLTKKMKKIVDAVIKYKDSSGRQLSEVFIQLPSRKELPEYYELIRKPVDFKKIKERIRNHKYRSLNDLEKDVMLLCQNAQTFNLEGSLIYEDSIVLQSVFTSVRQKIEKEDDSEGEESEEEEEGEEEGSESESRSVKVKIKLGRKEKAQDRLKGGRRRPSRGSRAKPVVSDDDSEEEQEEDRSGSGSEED
Chain of SS18L1 (mouse (endogenous in mouse brain)) (Q8BW22 whole entry): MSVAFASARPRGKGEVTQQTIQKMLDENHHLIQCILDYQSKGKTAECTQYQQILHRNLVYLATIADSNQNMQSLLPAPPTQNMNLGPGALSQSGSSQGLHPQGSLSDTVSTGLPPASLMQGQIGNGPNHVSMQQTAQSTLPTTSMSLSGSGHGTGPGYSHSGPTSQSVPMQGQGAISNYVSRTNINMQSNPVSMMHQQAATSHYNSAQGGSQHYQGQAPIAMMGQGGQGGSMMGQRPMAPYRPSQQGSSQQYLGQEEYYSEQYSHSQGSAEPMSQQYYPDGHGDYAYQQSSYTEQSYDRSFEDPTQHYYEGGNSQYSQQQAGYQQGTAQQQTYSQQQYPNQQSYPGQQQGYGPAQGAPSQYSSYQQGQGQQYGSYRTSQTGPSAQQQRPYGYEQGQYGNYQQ
Chain of SS18 (mouse (endogenous in mouse brain)) (Q62280 whole entry): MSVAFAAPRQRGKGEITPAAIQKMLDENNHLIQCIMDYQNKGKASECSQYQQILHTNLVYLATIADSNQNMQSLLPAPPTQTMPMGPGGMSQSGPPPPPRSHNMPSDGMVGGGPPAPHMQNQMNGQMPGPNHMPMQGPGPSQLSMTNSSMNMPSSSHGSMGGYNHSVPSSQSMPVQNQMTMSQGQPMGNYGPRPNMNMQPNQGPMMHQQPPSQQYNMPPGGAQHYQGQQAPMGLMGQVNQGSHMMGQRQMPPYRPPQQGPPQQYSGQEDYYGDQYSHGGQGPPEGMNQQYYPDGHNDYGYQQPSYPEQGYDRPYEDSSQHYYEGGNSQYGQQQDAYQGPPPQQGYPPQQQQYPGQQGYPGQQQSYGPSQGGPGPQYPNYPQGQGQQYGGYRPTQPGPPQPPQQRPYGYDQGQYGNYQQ

In the case of “BRWD1-FLAG-HA, Q921C3 1-2304 (natural protein)”, the percent co-depleted in experiment [1], in experiment [2] and in experiment [3] was 20% throughout. Further, in experiment [4], the percent destabilized in 0.5 M urea came to 60%. The substance further came in with a percent remaining bound through 4 M urea in experiment [4] of 40%.
